Measured values reported in the DeepSol protein solubility set.

Test: soluble on expression in E. coli; label from the status in PepcDB or PDB records

MGSDKIHHHHHHAGELRERVYLQTDKQFYLSGELVWMKFIATDLDQRLSDVSKVGYVELLDSASAVVQARLVLEKGVGDGCLQLPSTLPTGNYRLVAYTRYMRNEGEEVFFEKPLAVVNTFVTNETLLTDTLLPAYSFTRREDPVSVSPDRMTYDTRSGGEIRINGLPPDLQTLSVSIAGIDLYKPSARSGIVDWKQSMPTTGSSPADRKFLAEYEGPILTGKVIDLSTGEPSSKEAVRPLLGFSGGEIRLFGGQLGPAGEVTFFTRHISGTHEIVTVALSPSSSRYRVDIESPYATHPEKELPALRLNPAWQDELVKRSVGLQVLHAYRSDSLVREKAEKPWFQWQPDWSYLLDEYTRFTTMEEVVIEFIPGLRFRKMDGVRRLAVLTEERIGYTIGNSLVLLDGIPITDHEIIFKYDPLKIRKIDVYKGKYVFGGQIFDGIASFSSYEHNYPGLVVDNSTQFFDYEGTQAQRIFYMPAYRTEAEKRSPVPDFRHTLLWRPDIRTNGESSISIPFTTSDLTGDFTITIEGLTQTGEALYATEQFQVK
soluble on expression in E. coli: not soluble

MIYNKTINGLKVFIKDNDPFYEQVLNDFLTCRVKTLKVFRSIDDTKVILIDTARGPLVLKVYAPKHKMTERFLKSCIKKDYYENLIYQTDRVRGEGIQSINDYFLLAERKTLNFAHYYIMLIEYIEGVGLNEYLEISEDLKDQLSESIKELHQHGMVSGDPHKGNFIVSEKGLRLIDLSGKKTTAVLKAKDRIDLERHYNIKNELKDFGYTYLIFKKKIKKVIRDVKVKLGLKSKLEHHHHHH
soluble on expression in E. coli: not soluble

MAHHHHHHSLEYNLTTTEVAMENVSASWDEGIGEFFEKAKLEVNGGNISNEDPSAFFSNFSLHVAPVLRNINFKIEKGQLLAIAGSTGAGKTSLLMMIMGELEPSAGKIKHSGRISFSPQVSWIMPGTIKENIVFGVSYDQYRYLSVIKACQLEEDISKFPEKDNTVLGEGGITLSGGQRARISLARAVYKDADLYLLDSPFSYLDLFTEKEIFESCVCKLMANKTRILVTSKVEQLKKADKVLILHEGSCYFYGTFSELEDQRPEFSSHLIGFDHFNAERRNSIITETLRRCSEG
soluble on expression in E. coli: soluble

MLRNKAFVVRLYPNAAQAERINRTLGCARFVYNHFLARRIESYRQDGKGMIYAATDKALTLLKREEGTAWLAEVDKFALQQSLRDLERAYQNFFRTAKKSGKKVGFPKFKKKRTGEAYRTQFTNNNIEIGEGKLKLPKLGWVKTRGQRDMQGKILNVTVRRIHEGHYEASVLCEVEIPYLPAAPKFAAGVDVGIKDFAIVTDGKGEFEHHANPKYYRSSLRRLRKAQKTLSRRKKGSARYGRAKTTLARIHKRVANKRQDFIHKLTTSLVREYEITCTEHLKPDNMRKNRRLALSVSDAGWGEFIRQLEYKATWYGRLVSKISPYFPSSQICHDCGFKNPAVKNLAVREWTCPNCGETHDRDENAALNIRREGLVAAGMSDTQNAHGDCIRPTSVGSGLRSENHATSVVLEHHHHHH
soluble on expression in E. coli: soluble

MGSDKIHHHHHHMECLLKTTSSVRFGSIHHPCECPANEACPFSIMSLFKRKAASSLETLALAKVGETVRKRLSADPGVYRIPLDDLEIFGVADFFSAEECAKLMAIVDSVARPSPTYSGTDASGRTSYTGDVDPFDPFVLMLQRRIDDLMGIDPSFGETIQGQRYAPGQEFRGHYDHFLPSQPFWDAEQKRGGQRSWTAMAYLNAVEEGGQTEFARVNLSIPPQPGALLIWNNMKPDGTPNANAMHAGMPVVRGTKYVLTKWYRSRPWH
soluble on expression in E. coli: not soluble

LDVAKSLDQGLVDRMLQSNTGTDSCPKRLPKGIDSVTLDKIRDLFVGEAALTADEAGEKIGASRTTARRYLEYLISSGELEADLNYGTVGRPERCYKKVIR
soluble on expression in E. coli: not soluble

EVKLEESGGGLVQPGGSMKLSCATSGFTFSDAWMDWVRQSPEKGLEWVAEIRNKANNHATYYAESVKGRFTISRDDSKRRVYLQMNTLRAEDTGIYYCTGIYYHYPWFAYWGQGTLVTVSAEP
soluble on expression in E. coli: soluble

MNANYVSKKPYIVTIACTKGGSAKSTNAANIGAFCADHGLRTLLIDTDTQPTLSSYYSLAKTAPGGIYEFLLQRDVEPSHIVSQTSIKNLDLIQSNDPSNNVSHMLRNAPDGSIRFSHLIKSINNYDVIVIDTRGTRDITVDMSVLAADILFCPILPQILSAKEFIRGTIGMYQDLQTFESFGFKLPPLKAIANGVDNTNDVKFVMQKLHTLFANTFDESKTLLDFSIPYHVAYREAVTYALPVYRHSAVEYPVMQQLCCLLLPQFKENFEKPMQRGLEHHHHHH
soluble on expression in E. coli: soluble

MGSDKIHHHHHHMKFVVSSNALLKQLTAINGVITTNPVVPILENFLFEIGDGMLVVYASDLQTSMITEIAVEAKAKGSIAVPAKILLDTLKNLPEQPVTFTIDPETYSIEISSDNGRYKLSGENATDFPKVPGVKNGYSVDISTEILNRAISSTIFAASNDELKPAMTGVYVSLTESNATFVATDGHRLIRYRRTDIVSEMANTLIIPKKALNLLKASLPSENTNVKIEYNASNAFFSFNNIKMICRLIDERFPDYENAIPVDNPNVLTITRTDMMNSLKRISIYANKTTHQVRLKLAGSELQISAEDLDFSNEANERLACEFEGQDMEIGFNAKFLVEMLSNLDSPQISMHFSAPNRAGIITPADKDEHEDVLMLVMPVMLNSYA
soluble on expression in E. coli: not soluble

MGSDKIHHHHHHMSTPLSHATLEQLFLNARTHSHWQPRPVSDELLHQLHELLKQAPTSANCSPARFVFVKSEAAKAKLKPCLAAGNVDKTMAAPVCVIVAHDTRFYEHLPQLFPHADAKSWFEGNQPLIDTTAFRNGTLQGAYLILAARSLGLDCGPMSGFDNAAVDAAFFPDGRVKSNFLINLGYGEADKLFPRSPRFGFDEACQIL
soluble on expression in E. coli: not soluble

MAGVTKEQIAKAKEWDLLSYLQAYEPQELKKSGPREYCTRTHDSLKISNGKWCWNSRGIGGRTALDYLIKVRGMDFVGAVETLCGYCAPPPEKAPPIKEKQPKPFRLPQASRCASAVVGYLQDRGIDPELLGVCMEAGILYESCKYQNCVFVGRDTAGNARAASLRGTRDGFRMDVEGSDKRYSFCLPAGKADCPRLAVAESPIDALSLATLVKLSGGEPRDSHYLSLGGTGPRALIQFLHDHPHVTQVSLCLDNDKAGLEGMERLTQEIQNDAELSRRVKLVYPNPPKQGKDYNEFLCTHVKAVRTAQRQRDAAR
soluble on expression in E. coli: not soluble

MYVVKSANDGGNSLFLSSSDIVNQLSKTETGKKHLKTLTGNLYPFKTPASFDKKQGVRWGNILSVNTQMIRFRSDCIYKGIEENRNKVSKEMVLALDYLINVIKNASDIQEFSAQDDGLIIIDNVNGLHARTDYTDKNRHYIRARITV
soluble on expression in E. coli: not soluble

PKPPYSYIALITMAIRDSAGGRLTLAEINEYLMGKFPFFRGSYTGWRNSVRHNLSLNDCFVKVLRDPSRPWGKDNYWMLNPNSEYTFADGVFRRRRYRLS
soluble on expression in E. coli: soluble

EGEPIVEYQVKDLLYDQGVRVELHGKDLVSRVGEMTLDKVYYAFSKFFGLDIVTDYLEVPQDIPPRPPALCPGCPHRSSFIDLKKAITMASFKPNETFISG
soluble on expression in E. coli: not soluble

MSLSKVRISSKIEDCEEIINQYGGNYLSHLIYSGDKQFFTNENKTAFLMYRYKASSLVVLGDPLGDENAFDELLEAFYNYAEYLGYDVIFYQVTDQHMPLYHNFGNQFFKLGEEAIIDLTQFSTSGKKRRGFRATLNKFDELNISFEIIEPPFSTEFINELQHVSDLWLDNRQEMHFSVGEFNEEYLSKAPIGVMRNEENEVIAFCSLMPTYFNDAISVDLIRWLPELDLPLMDGLYLHMLLWSKEQGYTKFNMGMATLSNVGQLHYSYLRERLAGRVFEHFNGLYRFQGLRRYKSKYNPNWEPRFLVYRKDNSLWESLSKVMRVIRHKEGHHHHHH
soluble on expression in E. coli: soluble

HKQLNFVDLYYHPVLADMAALLSQKNVFKAIYTFVPRTDDMGDKPALFVIHSGNTGSDVYRPLFTGIKRPSFPIYVIEPHNLLNPEDQIYGIENLAKYYLQMINKFLPESSKREINLMGWSYGGVVASEMCYQLEHETSLLHVNQLTVLDSSFYLSSEDLQRVRKREANGFYAKYFTETHIFEGMDKKNVTTERLIANNHQVCEDLFNYHSKQVNVATTFVRSMVEENPLTDEQIKLLFKHVTIKNVYDGHDYLFVHESSRSLIQDVLGLAA
soluble on expression in E. coli: not soluble

MGSDKIHHHHHHMVEELLGKALARKRSLRKDETIDVFNRVTYFFPKDFVITNYPRNPVAVFNPGAVLVGKALHVFPRLIFDYYKYVSSIGHFIVNIDDLLNGEVKKPLEMEVVFWPRDIQEFLGCEDPRVFFRNSRFELLYTAKGYKDWSQEGKPHTDFLAYAVLDEDLNLIEKRYISIKSTLGEYVPVSMKDSSFVESKVILTRLTVGDAKVCWRGRLEGSYIDLYSLDPVFFPEEWETKVGWSTNTVEVKEGYLVGWHAVLKDLTYKNGLALVDGRGRLLGTTNYVLSPKGVIEEYGDRIRVIFGCGLVVYGGRVIWIGGVSDWAIGVFETSEREIMNLMKEAT
soluble on expression in E. coli: not soluble

MDISSTEIWDAIRRNSFLLYYQPKVDAKTNELIGFEGLIRLKTATAILAPADFFEDIALLNATREMQDFVAETAIEQINQLGGRFSISINIPAHYVVSSNYMTFLYDYVKEHLKYPECLEIEIIERGEITELAVADKNLRKIKKLGVTVSMDDFGKGYSSLAYLRSLPIDIVKTDMSFIALLKTDRKQQIIIQAIVNLCHDLGGKVVTEGVEDIEQVKTLREMKVDYFQGYYFSRPLPMKEIKEKYSIV
soluble on expression in E. coli: not soluble

MKERVIITGANGQLGKQLQEELNPEEYDIYPFDKKLLDITNISQVQQVVQEIRPHIIIHCAAYTKVDQAEKERDLAYVINAIGARNVAVASQLVGAKLVYISTDYVFQGDRPEGYDEFHNPAPINIYGASKYAGEQFVKELHNKYFIVRTSWLYGKYGNNFVKTMIRLGKEREEISVVADQIGSPTYVADLNVMINKLIHTSLYGTYHVSNTGSCSWFEFAKKIFSYANMKVNVLPVSTEEFGAAAARPKYSIFQHNMLRLNGFLQMPSWEEGLERFFIETKSH
soluble on expression in E. coli: not soluble

MPIHVDKPDTMQNELIDIVADGLRSNQIYTFRMILKHDYGTHKSEATFQADPAGRIDLKYAKPLRGSYYDADPMGLFLGMKPCEDFAYGGYLRCTPPVPFYYLLELFDSSGTLIDSTYIKKHWMHPKLIRTELEEDFCATLFKPPGDGPFPVVLDISGTGGGIHEHKGAMLASEGFVVLCLAFFQFKYLPQKMEDVDMEYFAKAINYLIDLPFTKNVIGIQGVSFGATIVDLLTTRHGDKIKALVSINGPQVVSDYLFMQENGAPIPHLSHGQVTLEHCQFINGVMCSHRNFQIMTEKLTPETEIPWERIPSDVKIRVIGSVDDLCQPSVHATYYRQRRLKETGHDVEVELVNGGHIMEPPYFPHHELVYAKYQGFYCGYGGEVVLHAKSQEKTWSNTIKFFQKALGNTKKIQDWDRLTVVVPPRKKSKL
soluble on expression in E. coli: not soluble

SSRHVFLTGPPGVGKTTLIQKAIEVLQSSGLPVDGFYTQEVRQEGKRIGFDVVTLSGAQGPLSRVGSQPLPGKPECRVGQYVVNLDSFEQLALPVLRNAGSSCGPKHRVCIIDEIGKMELFSQPFIQAVRQMLSTPGIIVVGTIPVPKGKPLALVEEIRKRRDVKVFNVTRDNRNSLLPDIVAVVQSSRT
soluble on expression in E. coli: soluble

GSMDCEVNNGSSLRDECITNLLVFGFLQSCSDNSFRRELDALGHELPVLAPQWEGYDELQTDGNRSSHSRLGRIEADSESQEDIIRNIARHLAQVGDSMDRSIPPGLVNGLALQLRNTSRSEEDRNRDLATALEQLLQAYPRDMEKEKTMLVLALLLAKKVASHTPSLLRDVFHTTVNFINQNLRTYVRSLARNGMD
soluble on expression in E. coli: soluble

MKKLLSSDRIKAEALRLGFSACGLAPAEAVDETVATAFRQWLADGCQAEMAYMQNYEDKRLDPRLLVEGARTVISVALNYYPAKKLPEGEYQIAWYAYGKDYHDVMKRKLKELFEFIEKEVSFSEETDSTIASTNNIGTYTENYASAPQAPVSQTSASPLQGRIFCDTAPILERYWAWRTGLGWIGKNTHLIIPHAGSCFFLGEIILDREADNYDSPQRNQCGSCTRCLDACPTKALEAPFRLNSERCLSYLTIEYRGELSLNTGKKMGNKIYGCDECLKACPWNRFATPCRTAEFQPSPSLLSMKKDDWHSLSEEQYKTIFKGSAVKRAKYSGLMRNIKIIK
soluble on expression in E. coli: not soluble
